From publication PMC2724274 (Nucleic Acids Research, 2009)

Biological target: the molecule itself
Experiment: crystal structure

B1: CrgA (contact-regulated gene A), full-length, from Neisseria meningitidis (natural protein, UniProt Q9JXW7 1-299, looked up)
chain: MKTNSEELTVFVQVVESGSFSRAAEQLAMANSAVSRIVKRLEEKLGVNLLNRTTRQLSLTEEGAQYFRRAQRILQEMAAAETEMLAVHEIPQGVLSVDSAMPMVLHLLAPLAAKFNERYPHIRLSLVSSEGYINLIERKVDIALRAGELDDSGLRARHLFDSRFRVIASPEYLAKHGTPQSTEELAGHQCLGFTEPGSLNTWAVLDAQGNPYKISPHFTASSGEILRSLCLSGCGIVCLSDFLVDNDIAEGKLIPLLAEQTSDKTHPFNAVYYSDKAVNLRLRVFLDFLVEELGNNLCG
stoichiometry N: 8
